Data on four molecules can be found in US20250313625A1 (ELPISCIENCE SUZHOU BIOPHARMA, published 2025).

Like-named read-outs stand apart in the source and are kept apart here.

Experiment [1] has as its target T1, human LAG3, full length, stably expressed on cells (human, UniProt P18627 23-525).
T1 construct: whole, on cells; also called CHOK1-human LAG3
T1 sequence (looked up): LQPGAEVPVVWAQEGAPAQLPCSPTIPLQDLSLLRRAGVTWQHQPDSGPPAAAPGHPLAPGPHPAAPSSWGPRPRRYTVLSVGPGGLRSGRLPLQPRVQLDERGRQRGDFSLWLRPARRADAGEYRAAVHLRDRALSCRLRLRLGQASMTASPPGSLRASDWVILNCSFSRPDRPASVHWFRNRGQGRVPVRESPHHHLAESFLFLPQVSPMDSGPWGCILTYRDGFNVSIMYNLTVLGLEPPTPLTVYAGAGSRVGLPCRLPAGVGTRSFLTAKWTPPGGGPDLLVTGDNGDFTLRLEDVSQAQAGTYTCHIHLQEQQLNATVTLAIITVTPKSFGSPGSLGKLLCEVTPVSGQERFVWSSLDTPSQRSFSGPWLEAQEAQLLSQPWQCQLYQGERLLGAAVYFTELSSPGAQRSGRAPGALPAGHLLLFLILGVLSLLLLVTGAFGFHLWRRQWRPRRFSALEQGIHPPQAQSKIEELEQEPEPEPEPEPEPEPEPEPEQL
Briefly: FACS on CHOK1 cells stably expressing human LAG3. The procedure:
(§1) MFI was detected and EC₅₀ was calculated using GraphPad Prism9.0.

The target in experiment [2] is T2, mFc tagged human LAG3 ECD recombinant protein (human, UniProt P18627 23-450).
T2 construct: extracellular domain; purchased from Biointron; not shown: mouse IgG Fc (mFc) tag
T2 sequence (looked up): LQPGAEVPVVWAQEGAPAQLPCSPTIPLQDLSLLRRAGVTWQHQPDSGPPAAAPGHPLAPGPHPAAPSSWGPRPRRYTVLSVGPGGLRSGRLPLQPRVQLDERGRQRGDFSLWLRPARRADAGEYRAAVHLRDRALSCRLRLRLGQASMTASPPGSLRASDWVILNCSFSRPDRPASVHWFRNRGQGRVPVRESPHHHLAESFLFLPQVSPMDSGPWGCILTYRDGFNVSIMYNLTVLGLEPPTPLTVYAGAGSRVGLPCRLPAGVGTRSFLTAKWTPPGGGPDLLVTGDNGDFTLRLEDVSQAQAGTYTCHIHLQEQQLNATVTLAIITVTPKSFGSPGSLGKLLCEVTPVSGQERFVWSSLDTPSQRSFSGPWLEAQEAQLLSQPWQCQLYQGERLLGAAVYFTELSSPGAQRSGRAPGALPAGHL
Put plainly: competitive FACS: mFc tagged human LAG3 ECD binding to MHC II on Raji cells. The method, then:
(§2) Activity of the purified chimeric antibodies to block LAG3 and MHC II interaction was determined by competitive FACS assay. […] After washing, dye labeled anti-mouse Fc 2nd antibody (Sigma) was added and incubated at 37° C. for 1 hour. Fluorescence intensity was detected.

Experiment [3] addresses T1, human LAG3, full length, stably …. Put plainly: FACS on 293F cells stably expressing human LAG3. The method, then:
(§3) Briefly the antibodies were incubated with 2×10⁵ target cells at 4° C. for 1 hour. After washing, fluorescence labeled anti-mouse IgG 2nd antibody (Life Technologies) was added and incubated at 4° C. for 1 hour. Geometric median fluorescence intensity (MFI) was detected and EC₅₀ was calculated using GraphPad Prism9.0.
as §1

The target of experiment [4] is T2, mFc tagged human LAG3 ECD recombinant …. Briefly: competitive FACS: mFc-LAG3 ECD binding to Raji cells (MHC II). The procedure:
as §2

Experiment [5] addresses T3, human LAG3 ECD recombinant protein (plate coated, tag not stated) (human, UniProt P18627 23-450).
T3 construct: extracellular domain
T3 sequence (looked up): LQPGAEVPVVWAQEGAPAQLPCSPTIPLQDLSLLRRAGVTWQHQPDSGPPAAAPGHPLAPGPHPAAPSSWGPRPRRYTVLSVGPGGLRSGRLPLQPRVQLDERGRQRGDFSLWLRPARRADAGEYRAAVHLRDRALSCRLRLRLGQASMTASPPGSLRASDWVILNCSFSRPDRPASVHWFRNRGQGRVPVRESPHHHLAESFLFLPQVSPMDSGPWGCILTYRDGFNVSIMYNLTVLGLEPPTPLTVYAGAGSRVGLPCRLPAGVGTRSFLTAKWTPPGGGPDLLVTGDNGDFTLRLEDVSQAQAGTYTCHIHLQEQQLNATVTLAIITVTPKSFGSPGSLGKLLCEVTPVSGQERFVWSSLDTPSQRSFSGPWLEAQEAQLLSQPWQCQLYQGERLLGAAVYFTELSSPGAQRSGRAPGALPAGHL
Put plainly: competitive ELISA format I: His-FGL1 binding to coated LAG3 ECD. The method, then: (§4) After washing, HRP labeled anti-His 2nd antibody (Sigma) was added and incubated at 37° C. for 1 hour. Then, 100 μl/well of TMB solution (Biotechnology) was added. After incubation for 15 minutes at room temperature, the reaction was stopped by the addition of 50 μl of 1N HCl. OD 450 nm was read. […] After washing, HRP labeled anti-SA 2nd antibody (Sigma) was added and incubated at 37° C. for 1 hour. Then, 100 μl/well of TMB solution (Biotechnology) was added. After incubation for 15 minutes at room temperature, the reaction was stopped by the addition of 50 μl of 1N HCl. OD 450 nm was read. […] The competition assay of format III is a competitive FACS assay. […] After washing, dye labeled anti-His 2nd antibody (Sigma) was added and incubated at 37° C. for 1 hour. Fluorescence intensity was detected.
(An ELISA detects its analyte on a solid surface through an enzyme-linked reagent.)

The target of experiment [6] is T4, hFc tagged human LAG3 ECD recombinant protein (human, UniProt P18627 23-450).
T4 construct: range 23-450; also called biotin labelled hFc tagged human LAG3 ECD; not shown: human IgG Fc tag
T4 sequence (looked up): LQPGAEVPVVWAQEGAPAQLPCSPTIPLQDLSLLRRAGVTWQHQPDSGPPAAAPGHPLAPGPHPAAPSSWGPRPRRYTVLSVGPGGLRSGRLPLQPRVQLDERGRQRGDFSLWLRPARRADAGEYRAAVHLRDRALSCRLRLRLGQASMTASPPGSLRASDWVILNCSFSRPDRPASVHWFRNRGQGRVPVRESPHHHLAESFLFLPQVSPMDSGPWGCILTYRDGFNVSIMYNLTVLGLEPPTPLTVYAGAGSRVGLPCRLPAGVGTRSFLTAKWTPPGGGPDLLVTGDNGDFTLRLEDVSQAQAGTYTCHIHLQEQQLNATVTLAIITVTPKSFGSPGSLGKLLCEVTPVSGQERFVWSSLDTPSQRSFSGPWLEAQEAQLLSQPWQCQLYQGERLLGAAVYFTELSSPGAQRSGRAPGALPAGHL
Put plainly: competitive ELISA format II: biotin hFc-LAG3 ECD binding to coated His-FGL1. The method, then:
as §4

Experiment [7] has as its target T5, human LAG3 (form used in Octet, Biacore and HDX-MS not given) (human, UniProt P18627 23-450, limits assumed).
T5 sequence (looked up): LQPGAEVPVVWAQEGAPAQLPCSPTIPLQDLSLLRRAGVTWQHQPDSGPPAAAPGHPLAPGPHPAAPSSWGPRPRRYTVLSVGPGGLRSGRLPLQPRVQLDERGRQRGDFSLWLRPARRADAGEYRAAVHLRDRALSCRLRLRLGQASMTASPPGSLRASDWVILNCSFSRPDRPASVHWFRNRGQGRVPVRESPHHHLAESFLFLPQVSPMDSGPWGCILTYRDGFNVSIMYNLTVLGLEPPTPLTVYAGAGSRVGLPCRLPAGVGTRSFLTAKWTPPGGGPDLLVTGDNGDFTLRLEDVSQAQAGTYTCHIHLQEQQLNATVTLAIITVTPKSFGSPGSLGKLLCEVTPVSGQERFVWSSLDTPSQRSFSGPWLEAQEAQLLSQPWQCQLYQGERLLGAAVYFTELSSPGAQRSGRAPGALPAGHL
Put plainly: BLI (Octet).

The target in experiment [8] is T5, human LAG3 (form used in Octet, Biacore …). Briefly: SPR (Biacore), 1:1 fit. The method, then: The association and dissociation curves were fit with 1:1 binding model, and the Ka/Kd/KD values for each antibody were calculated.
(In general: SPR reads the build-up and loss of mass on a sensor chip optically.)

Experiment [9] has as its target T1, human LAG3, full length, stably …. Briefly: FACS on 293F cells stably expressing human LAG3. The procedure: as §3, §1
This is another data set of the same source.

In experiment [10] the target is T2, mFc tagged human LAG3 ECD recombinant …. Put plainly: competitive FACS: mFc-LAG3 ECD binding to Raji cells (MHC II). The method, then: as §2
The source holds these as a separate data set.

The target of experiment [11] is T4, hFc tagged human LAG3 ECD recombinant …. Put plainly: competitive ELISA format II: biotin hFc-LAG3 ECD binding to coated His-FGL1. The procedure:
as §4
This is another data set of the same source.

B1: hu021.212 (antibody, V domains shown)
VH: QVQLQESGPGLVKPSQTLSLTCTVSGYSISSGYYWNWIRQHPGNKLEWIGDISYEGGNNYNPSLKNRVTISRDTSKNQFSLKLSSVTAADTAVYYCARDITLTGAMDYWGQGTTVTVSS
VL: EIVLTQSPATLSLSPGERATLSCRASESVDNYGISFMHWYQQKPGQAPRLLIYRASNLETGIPARFSGSGSRTDFTLTISSLEPEDFAVYYCQQSNKDPYTFGQGTKLEIK
notes: humanized from 021c
Regarding B1, in experiment [1], the EC50 worked out at 1.8 nM and the “TOP MFI” value turned out to be 586. In addition, in experiment [2], the “%Blocking at 2 nM” value was found to be 4.6%, the “%Blocking at 4 nM” value was found to be 23.9% and the “%Blocking at 8 nM” value came out at 71.5%.

B2: 027c (antibody, human IgG4, V domains shown)
VH: EVKILQSGGGLVQPGGSLKLSCAASGIDFSRYWMSWVRRTPGKGLEWIGEINPDSSTINYAPSLKDKFIISRDNAKNTLYLQMSKVRSEDTALYYCARLGIIPTYHYGSSGYYYAMDYWGQGTSVTVSS
VL: DVLMTQTPLSLPVSLGDRASISCRSSQTIVHGNGHTSLEWYLQKPGQSPQLLIYKVSNRFSGVPDRFSASGSGTDFTLTISRVEAEDLGVYYCFQVSHVPYTFGGGTKLEIK
notes: human IgG4 S228P / kappa chimeric antibody; also called chimeric antibody 027; not shown: human kappa light chain constant region (pcDNA3.4-hIgGk vector)
With B2, in [3], the EC50 turned out to be 2 nM and the “TOP MFI” value is 302. Also, in experiment [4], the IC50 amounted to 4.5 nM and the “TOP blocking (%)” value worked out at 91.2%. Moreover, in experiment [5], the “Blocking ratio at 66.7 nM (%)” value was 26.7%. In addition, in [6], the IC50 turned out to be 6.13 nM and the “TOP blocking (%)” value was found to be 78.3%.

B3: hu023.04 (antibody, human IgG4, V domains shown)
VH: QVQLVQSGAEVKKPGASVKVSCKASGYTFTESPMNWVRQAPGQGFEWMGIIYTDTGEPTYAEEFKGRVTMTRDTSTSTVYMELSSLRSEDTAVYFCASDYGSILYWYFDVWGQGTLVTVSS
VL: DIQMTQSPSSLSASVGDRVTITCKASQDVSTAVAWYQQKPGKAPKLLIYSASYRYTGVPSRFSGSGSGTDFTLTISSLQPEDFATYYCQQHYNAPPTFGQGTKLEIK
notes: humanized from 023c
Regarding B3, in experiment [7], the affinity, expressed as Kd, was 0.537 nM; the koff is 0.000164 s⁻¹; the kon came out at 305000 M⁻¹ s⁻¹. In experiment [8], this molecule displayed a Kd of 0.242 nM, a koff of 0.000402 s⁻¹ and a kon of 1.66e+06 M⁻¹ s⁻¹. Also, in experiment [9], the EC50 amounted to 0.4 nM and the “TOP MFI” value turned out to be 3180. In addition, in experiment [10], the IC50 is 5.9 nM and the “TOP blocking (%)” value came to 99.2%. Moreover, in experiment [11], the IC50 came out at 1.7 nM and the “TOP blocking (%)” value stood at 82.2%.

B4: hu023.11 (antibody, human IgG4, V domains shown)
VH: QVQLVQSGPELKKPGASVKVSCKASGYTFTESPMNWVRQAPGQGFEWMGIIYTDTGEPTYAEEFKGRFVFSLDTSVSTAYLQISSLKAEDTAVYFCVSDYGSILYWYFDVWGQGTLVTVSS
VL: DIQMTQSPSSLSASVGDRVTITCKASQDVSTAVAWYQQKPGKSPKLLIYSASYRYTGVPSRFSGSGSGTDFTFTISSLQPEDFATYYCQQHYNAPPTFGQGTKLEIK
notes: humanized from 023c
As for B4, in [7], the Kd came to 0.0782 nM, the dissociation rate constant (koff) was 2.37e-05 s⁻¹ and the kon is 303000 M⁻¹ s⁻¹. In addition, in experiment [8], the Kd was 0.0205 nM, the koff is 9.1e-05 s⁻¹ and the kon was found to be 4.43e+06 M⁻¹ s⁻¹. For the same molecule, in experiment [9], the EC50 was 0.17 nM and the “TOP MFI” value was determined as 3140. Besides, in experiment [10], the 50% inhibitory concentration (IC50) is 5.8 nM and the “TOP blocking (%)” value was 99.3%. In addition, in [11], the IC50 was determined as 1.2 nM and the “TOP blocking (%)” value is 83.9%.

A word on the EC50: it is the concentration that produces a half-maximal response. A high value points to lower potency in that assay. In general, IC50 refers to the point on the concentration scale where inhibition reaches its midpoint. As a reminder, the Kd is the equilibrium constant for the complex coming apart. Lower therefore signals higher affinity. One may read the koff as a measure of how fast the partners let go of each other. Lower therefore signals a long-lived complex. As usually defined, the kon is a measure of how fast the partners come together. Read a low kon as slow association.
